Experimental data reported in paper doi:10.1101/2021.05.26.445723 (bioRxiv, 2021).

Biological target: GST-Sir3^SaID (S. cerevisiae, UniProt P06701 531-723)
Test: pull-down

GST-Sir3^SaID, sequence (P06701 531-723): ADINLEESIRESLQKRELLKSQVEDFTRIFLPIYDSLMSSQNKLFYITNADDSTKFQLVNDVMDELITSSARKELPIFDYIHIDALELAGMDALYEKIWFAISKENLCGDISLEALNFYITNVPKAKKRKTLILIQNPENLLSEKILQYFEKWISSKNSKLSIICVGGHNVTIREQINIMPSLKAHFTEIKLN

B1: Sae2^C (purified) (domain or fragment, S. cerevisiae, UniProt P46946 173-345, looked up)
chain: ENPESTSPNLYKNVKDNFLFDFNTNPLTKRAWILEDFRPNEDIAPVKRGRRKLERFYAQVGKPEDSKHRSLSVVIESQNSDYEFAFDNLRNRSKSPPGFGRLDFPSTQEGNEDKKKSQEIIRRKTKYRFLMASNNKIPPYEREYVFKREQLNQIVDDGCFFWSDKLLQIYARC
B1: binds.
